Our source for the Kd values is paper PMC2700308.

The target in the assay is gp120 prebound to sCD4 (HIV-1, subtype B, strain YU2 | human) (UniProt P35961). The assay is described as follows: ITC.

One may read the Kd as the constant that tells how readily two partners part at equilibrium. A low value points to higher affinity. For “S22 peptide, 22 amino acid tyrosine-sulfated peptide corresponding to the CCR5 N-terminus (from UniProt P51681 1-22)”, the Kd was determined as 2200 nM. This counts as single-digit micromolar.
